Data on 3 molecules can be found in article PMC2120828 (The Journal of Cell Biology, 1996).

Common to all, as to experiment: two-hybrid
Assay [1] deals with DBDlexA-Cdc42(D118A/C188S) (S. cerevisiae, UniProt P19073 1-191, D118A | C188S).
A further assay concerns the target DBDlexA-Cdc42(C188S) (S. cerevisiae, UniProt P19073 1-191, C188S).
Assay [2] concerns the target DBDlexA-Cdc42(Q61L/C188S) (S. cerevisiae, UniProt P19073 1-191, Q61L | C188S).

Where only a bound is given, the exact number is not on record here.

DBDlexA-Cdc42(D118A/C188S), sequence (P19073 whole entry D118A/C188S): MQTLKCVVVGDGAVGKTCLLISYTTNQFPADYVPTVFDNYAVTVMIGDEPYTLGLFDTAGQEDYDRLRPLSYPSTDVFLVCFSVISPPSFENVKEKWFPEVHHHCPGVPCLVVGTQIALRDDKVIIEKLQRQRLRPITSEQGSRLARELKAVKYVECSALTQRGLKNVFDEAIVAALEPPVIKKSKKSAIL
DBDlexA-Cdc42(Q61L/C188S), sequence (P19073 whole entry Q61L/C188S): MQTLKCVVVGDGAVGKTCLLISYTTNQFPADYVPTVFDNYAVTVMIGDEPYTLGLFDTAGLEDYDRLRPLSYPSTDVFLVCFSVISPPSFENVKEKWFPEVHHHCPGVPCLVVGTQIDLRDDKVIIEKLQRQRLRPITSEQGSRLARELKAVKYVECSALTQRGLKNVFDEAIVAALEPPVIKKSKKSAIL
DBDlexA-Cdc42(C188S), sequence (P19073 whole entry C188S): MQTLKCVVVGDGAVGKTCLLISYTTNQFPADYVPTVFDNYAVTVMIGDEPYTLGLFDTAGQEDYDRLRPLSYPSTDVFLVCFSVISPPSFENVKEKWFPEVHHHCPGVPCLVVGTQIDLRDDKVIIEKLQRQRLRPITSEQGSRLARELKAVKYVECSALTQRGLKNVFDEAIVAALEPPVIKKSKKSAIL

B1: ADGal4-BOI1(375-557) (domain or fragment, S. cerevisiae)
chain: ILDMTEVPNLFADKDIFESPGRAPKPPSYPSPVQPPQSPSFNNRYTNNNARFPPQTTYPPKNKNPTVYSNGLIPNSSTSSDNSTGKFKFPAMNGHDSNSRKTTLTSATIPSINTVNTDESLPAISNISSNATSHHPNRNSVVYNNHKRTESGSSFVDLFNRISMLSPVKSSFDEEETKQPSKA
Take B1: the beta-galactosidase activity in assay [1] was below 0.02.

B2: ADGal4-BOI1(731-980) (domain or fragment, S. cerevisiae)
chain: EFKRSPSELTQKSTKSILPRSNAKKQQTSAFTEGIRSITAKESMQTADCSGWMSKKGTGAMGTWKQRFFTLHGTRLSYFTNTNDEKERGLIDITAHRVLPASDDDRLISLYAASLGKGKYCFKLVPPQPGSKKGLTFTEPRVHYFAVENKSEMKAWLSAIIKATIDIDTSVPVISSYATPTIPLSKAQTLLEEARLQTQLRDAEEEEGRDQFGWDDTQNKRNSNYPIEQDQFETSDYLESSAFEYPGGRL
Consider B2, for which the figures for the beta-galactosidase activity (with DBDlexA-Cdc42(C188S); in assay [2]; in assay [1]) were 380, 230 and below 0.02, respectively.

B3: ADGal4-BOI1(375-980) (domain or fragment, S. cerevisiae)
chain: ILDMTEVPNLFADKDIFESPGRAPKPPSYPSPVQPPQSPSFNNRYTNNNARFPPQTTYPPKNKNPTVYSNGLIPNSSTSSDNSTGKFKFPAMNGHDSNSRKTTLTSATIPSINTVNTDESLPAISNISSNATSHHPNRNSVVYNNHKRTESGSSFVDLFNRISMLSPVKSSFDEEETKQPSKASRAVFDSARRKSSYGHSRDASLSEMKKHRRNSSILSFFSSKSQSNPTSPTKQTFTIDPAKMTSHSRSQSNSYSHARSQSYSHSRKHSLVTSPLKTSLSPINSKSNIALAHSETPTSSNNKEAVSQPSEGKHKHKHKHKSKHKHKNSSSKDGSSEEKSKKKLFSSTKESFVGSKEFKRSPSELTQKSTKSILPRSNAKKQQTSAFTEGIRSITAKESMQTADCSGWMSKKGTGAMGTWKQRFFTLHGTRLSYFTNTNDEKERGLIDITAHRVLPASDDDRLISLYAASLGKGKYCFKLVPPQPGSKKGLTFTEPRVHYFAVENKSEMKAWLSAIIKATIDIDTSVPVISSYATPTIPLSKAQTLLEEARLQTQLRDAEEEEGRDQFGWDDTQNKRNSNYPIEQDQFETSDYLESSAFEYPGGRL
With B3, the beta-galactosidase activity in assay [2] is 400; in assay [1], below 0.02.
